Blank lines part the entries; values can stand above or below the molecule they belong to.
Assays:
[1] = target: Human C-type lectin-like molecule-1 (CLL-1) on cells (human) (UniProt Q5QGZ9); experiment: flow cytometry histogram on THP-1 AML cells
[2] = target: Human C-type lectin-like molecule-1 (CLL-1) on cells (human) (UniProt Q5QGZ9); experiment: flow cytometry histogram on Molm13 AML cells
[3] = target: Human C-type lectin-like molecule-1 (CLL-1) on cells (human) (UniProt Q5QGZ9); experiment: flow cytometry dot plot on Molm14 WT cells, CLL-1_APC_A against CD123_BV421_A (D-Q1: 0.14%, D-Q3: 0.28%, D-Q4: 18.03%); in the Molm14 CLL-1KO pool the same quadrant holds D-Q2: 10.47% and D-Q4: 89.48%
[4] = target: Human C-type lectin-like molecule-1 (CLL-1) on cells (human) (UniProt Q5QGZ9); experiment: flow cytometry histogram on HL60 AML cells
[5] = target: Human C-type lectin-like molecule-1 (CLL-1) on cells (human) (UniProt Q5QGZ9); experiment: flow cytometry histogram on U937 AML cells
[6] = target: Human C-type lectin-like molecule-1 (CLL-1) on cells (human) (UniProt Q5QGZ9); experiment: flow cytometry histogram on Molm14 AML cells; the bold label in the same panel prints 67.1%
[7] = target: T1, Human C-type lectin-like molecule-1 (CLL-1) on cells (human, UniProt Q5QGZ9 1-265); experiment: flow cytometry, overlaid histograms on K562-CLL-1 OFP cells; panel title 'Anti-CLL-1 scFv-Fc Abs_2 nM' (legend paragraph 56 says 0.2 nM); control: 2nd antibody only [B]
T1 construct: whole, on cells; also called CLL-1 antigens; MICL
T1 sequence (looked up): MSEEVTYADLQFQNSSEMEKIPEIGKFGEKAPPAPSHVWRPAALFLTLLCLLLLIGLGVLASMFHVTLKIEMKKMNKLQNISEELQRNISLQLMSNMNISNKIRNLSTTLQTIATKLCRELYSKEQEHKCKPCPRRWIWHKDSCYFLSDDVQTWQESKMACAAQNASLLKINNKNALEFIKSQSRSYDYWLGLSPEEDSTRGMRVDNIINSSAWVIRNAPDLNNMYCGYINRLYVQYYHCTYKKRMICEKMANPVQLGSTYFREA
Experimental: FIG. 1 illustrates screening of the anti-CLL-1 antibodies disclosed herein by flow cytometry: (A) Representative flow cytometry dot plots. (B) Overlapping histograms. Each scFv-Fc antibody was stained at 0.2 nM with paired K562-CLL-1 and K562 cells, followed by staining with fluorochrome-conjugated 2nd antibody for flow cytometry analysis;
As illustrated in FIGS. 1A-B and 2, purified scFv-Fc antibodies were further assessed by flow cytometry for their binding to CLL-1 antigens of the K562-Luc-CLL-1 transfectant as well as the CLL-1+ AML cell line, U937, MOLM-14 and THP-1. K562 cells, a human erythroleukemic cell line, and Raji-Luc cells, a human B lymphoblastoid cell line, were used as the CLL-1-negative control cell lines. Each scFv-Fc antibody was screened with six cell lines, including K562, K562-CLL-1, U937, MOLM-14, THP-1 and Raji. Although the binding profiles of each clone varied with cell lines tested, the Top 3 clones with stronger binding pattern were selected, and the ranges of binding percentage were 52%˜99% for K562-Luc-CLL-1, 25%˜98% for U937, 6%˜37% for MLOM-14 and 1%-36% for THP-1.

[8] = target: T2, CLL-1-ECD (human, UniProt Q5QGZ9 65-265); experiment: AlphaLISA; column head 'Affinity: Kd (M) by AlphaLISA'
T2 construct: extracellular domain; also called CLL-1-ECD antigen
T2 sequence (looked up): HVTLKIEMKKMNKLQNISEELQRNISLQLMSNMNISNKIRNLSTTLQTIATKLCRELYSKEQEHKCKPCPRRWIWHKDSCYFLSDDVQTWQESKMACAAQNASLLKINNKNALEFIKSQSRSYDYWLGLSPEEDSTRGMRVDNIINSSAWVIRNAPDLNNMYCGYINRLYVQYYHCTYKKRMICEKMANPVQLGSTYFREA
Experimental: (§1) In order to characterize the antigen binding capacities of anti-CLL-1 scFv-Fc antibodies, an AlphaLISA sandwich assay was set up with Anti-6×His Acceptor beads, Protein A Donor beads, and CLL-1-ECD. By AlphaLISA assay, the Kd values of each anti-CLL-1 scFv-Fc antibody were determined.

[9] = target: T2, CLL-1-ECD; experiment: AlphaLISA sandwich assay with Anti-6xHis Acceptor beads, Protein A Donor beads and CLL-1-ECD
Experimental: as §1

[10] = target: T2, CLL-1-ECD; experiment: AlphaLISA; column head 'Affinity: Kd (M) by AlphaLISA'; clone printed as 56D01, FIG. 3A on the same sheet prints 65D01
Experimental: as §1

- % positive cells (gate D) [1]: 71%
- % positive cells (gate D) [2]: 21.6%
- % cells in quadrant D-Q2 (CLL-1 APC+ CD123 BV421+) [3]: 81.5%
- % positive cells (gate D) [4]: 74.4%
- % positive cells (gate D) [5]: 99.3%
- % positive cells (gate D) [6]: 67.6%
Molecule: anti-human CLL-1-APC antibody (clone REA431)

- binding result [7]: binds
B1: 59A09 (Fc fusion)
VH: EVQLVESGGGLVQPGGSLRLSCAASGFTFTDYYIHWVRQAPGKGLEWVSMISPSGGGEAYYADSVKGRFTISRDNSKNTLYLQMNSLRAEDTAVYYCARAHDFDDFDYWGQGTLVTVSS
VL: DIQMTQSPSSLSASVGDRVTITCRASQSIRYSLAWYQQKPGKASKLLIYDASTLQSGVPSRFSGSGSGTDFTLTISSLQPEDFATYYCQQYNNSPLTFGQGTKVEIK
notes: anti-CLL-1 scFv-Fc clone; also called anti-CLL-1-59A09; K562-CLL-1 OFP 59A09

- binding result [7]: binds
B2: 61A07 (Fc fusion)
VH: EVQLVESGGGLVQPGGSLRLSCAASGFTFSNHWMHWVRQAPGKGLEWVSSISGAGGGKSYADSVKGRFTISRDNSKNTLYLQMNSLRAEDTAVYYCARDESSYAYDGDYWGQGTLVTVSS
VL: DIQMTQSPSSLSASVGDRVTITCRANQSIRNYLNWYQQKPGKAPKLLIYAASTLQSGVPSRFSGSGSGTDFTLTISSLQPEDFATYYCQQNTSSPSTFGQGTKVEIK
notes: anti-CLL-1 scFv-Fc clone; also called anti-CLL-1-61A07; K562-CLL-1 OFP 61A07

- Kd [8]: 1.1 nM
- EC50 (read off the curve) [9]: ~1 nM
B3: anti-CLL-1 scFv-Fc antibody 72C10 (Fc fusion)
VH: EVQLVESGGGLVQPGGSLRLSCAASGFTFSVNAMHWVRQAPGKGLEWVSTISGSDGHKYYADSVKSRFTISRDNSKNTLYLQMNSLRAEDTAVYYCARDVDSEIGDGYHEDIWGQGTLVTVSS
VL: DIQMTQSPSSLSASVGDRVTITCRASQSVTNALNWYQQKPGKAPKLLIYAASNLQSGVPSRFSGSGSGTDFTLTISSLQPEDFATYYCQQTNNSPATFGQGTKVEIKR
notes: also called anti-CLL-1-72C10

- Kd [10]: 2.8 nM
B4: anti-CLL-1 scFv-Fc antibody 65D01 (Fc fusion)
VH: QVQLQQWGAGLLKPSETLSLTCAVYGGSFSGYYWSWIRQPPGKGLEWIGEINHSGSTNYNPSLKSRVTISVDTSKNQFSLKLSSVTAADTAAYYCARSPLQWLDDAFDIWGQGTMVTVSS
VL: QSVLTQPPSVSAAPGQRVTISCSGSSSNIGSNYVSWYQQLPGTAPKLLIYDNNERPSGIPDRFSGSKSATSATLDITGLQTGDEADYFCGTWDNSPSTDWVFGGGTKVTVLG
notes: also called anti-CLL-1-65D01

- Kd [8]: 4.9 nM
B5: anti-CLL-1 scFv-Fc antibody 61H08 (Fc fusion)
VH: EVQLVESGGGLVQPGGSLRLSCAASGFTFDDYGMHWVRQAPGKGLEWVSGIWPSGGNKEYADSVKGRFTISRDNSKNTLYLQMNSLRAEDTAVYYCARLLALTYDYFDYWGQGTLVTVSS
VL: DIQMTQSPSSLSASVGDRVTITCRASQGISSYLAWYQQKPGKAPKLLIYDASTLQSGVPSRFSGSGSGTDFTLTISSLQPEDFATYYCQQSYSTPFTFGQGTKVEIKR
notes: also called anti-CLL-1-61H08

Source: patent US20240398863A1 (ARCE THERAPEUTICS, published 2024)
